{"source": "paper PMC4569481", "target": "Dihydrolipoamide dehydrogenase (Lpd) of P. aeruginosa, recombinant full length (Lpd^1-478) (P. aeruginosa strain PAO1) (UniProt Q9I3D1)", "sequence (Q9I3D1 whole entry)": "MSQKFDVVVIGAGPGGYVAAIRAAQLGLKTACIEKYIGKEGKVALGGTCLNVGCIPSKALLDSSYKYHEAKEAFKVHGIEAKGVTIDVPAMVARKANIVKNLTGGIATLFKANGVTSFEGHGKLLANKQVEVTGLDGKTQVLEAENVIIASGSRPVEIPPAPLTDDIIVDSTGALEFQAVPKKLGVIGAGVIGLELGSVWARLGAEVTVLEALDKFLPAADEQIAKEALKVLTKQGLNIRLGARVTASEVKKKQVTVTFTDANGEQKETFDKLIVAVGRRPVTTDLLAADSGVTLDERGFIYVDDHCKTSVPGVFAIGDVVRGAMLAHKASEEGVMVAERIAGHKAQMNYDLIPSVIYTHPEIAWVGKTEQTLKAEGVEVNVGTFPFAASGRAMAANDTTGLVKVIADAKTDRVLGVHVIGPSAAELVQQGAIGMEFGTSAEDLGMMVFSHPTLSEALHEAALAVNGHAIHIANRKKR", "assay": "ELISA; Lpd (5 μg/ml) coated on microtiter plates overnight at 4°C; vitronectin (0.01–12.5 μg/ml), recombinant vitronectin constructs (5 μg/ml) or clusterin (0.01–20 μg/ml) added 1 h at RT; detected with antibodies, absorbance at 492 nm"}
{"substance": "vitronectin^80-353 (domain or fragment)", "values": [{"measurement": "percent reduction of binding (ELISA signal; reference not named)", "result": 70, "unit": "%"}]}
